Assay results reported in article PMC2749287.

Columns and labels:
[1] = biological target: T1, VDR;RXRα (human;human, UniProt P11473;P19793 1-427;1-462, |); assay: EMSA
[2] = biological target: T1, VDR;RXRα; assay: competition

T1 sequence (P11473 whole entry, chain 1 of 2): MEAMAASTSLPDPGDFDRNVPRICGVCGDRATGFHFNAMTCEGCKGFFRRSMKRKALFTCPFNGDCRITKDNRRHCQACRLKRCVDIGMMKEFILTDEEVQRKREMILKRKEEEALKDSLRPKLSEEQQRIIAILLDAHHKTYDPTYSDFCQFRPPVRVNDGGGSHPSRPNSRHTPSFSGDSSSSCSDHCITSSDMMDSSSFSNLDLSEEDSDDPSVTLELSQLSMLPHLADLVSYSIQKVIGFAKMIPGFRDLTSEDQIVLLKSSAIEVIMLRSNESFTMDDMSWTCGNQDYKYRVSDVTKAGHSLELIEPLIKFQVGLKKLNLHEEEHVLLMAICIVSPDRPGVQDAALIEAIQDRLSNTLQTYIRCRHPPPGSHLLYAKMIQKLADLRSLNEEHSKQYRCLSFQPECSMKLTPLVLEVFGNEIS
T1 sequence (P19793 whole entry, chain 2 of 2): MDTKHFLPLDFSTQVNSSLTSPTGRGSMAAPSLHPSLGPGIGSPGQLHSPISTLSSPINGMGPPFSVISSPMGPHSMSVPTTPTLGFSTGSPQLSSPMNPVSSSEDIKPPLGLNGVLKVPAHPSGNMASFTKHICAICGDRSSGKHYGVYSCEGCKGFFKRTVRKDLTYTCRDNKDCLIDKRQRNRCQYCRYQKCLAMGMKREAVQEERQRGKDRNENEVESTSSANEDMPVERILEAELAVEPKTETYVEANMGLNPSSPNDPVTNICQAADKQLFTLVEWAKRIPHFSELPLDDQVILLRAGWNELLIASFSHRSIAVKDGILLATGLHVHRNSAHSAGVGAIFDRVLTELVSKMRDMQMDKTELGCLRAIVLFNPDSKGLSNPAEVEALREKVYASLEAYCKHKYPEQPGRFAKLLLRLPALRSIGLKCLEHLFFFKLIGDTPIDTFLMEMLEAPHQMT

Binder	binding result [1]	binding result [2]
wild-type VDRE2 probe, hCYP24A1 promoter (dsDNA) DNA 1: CGAAGCACACCCGGTGAACTCCGGGCTT DNA 2: AAGCCCGGAGTTCACCGGGTGTGCTTCG	binds	–
unlabeled wild-type VDRE2 competitor (dsDNA) DNA 1: CGAAGCACACCCGGTGAACTCCGGGCTT DNA 2: AAGCCCGGAGTTCACCGGGTGTGCTTCG	–	binds
